# Laboratory results published in patent US9386938B2, “Methods for collagen imaging” (Collagen Medical, LLC, priority 2005, dated 2016).
# Bridge positions count the residues as written; N and C are the ends. Square brackets hold non-standard residues; d marks the D form. Ends that are not written are not given here. Glu‑DTPA‑Gd = N-terminal Glu-DTPA-Gd chelate (gadolinium DTPA complex on glutamic acid); bb‑DTPA gadolinium tetramer diacid = not defined here; AEEA = NCCOCCOCC(=O)O
# How the values were obtained:
# [1] = test system: perfused Langendorff rat heart; test: Equilibrium binding to perfused Langendorff rat heart
# Experimental: (§1) After deep anesthesia with pentobarbital (80 mg/kg ip), the chest cavity of a male Sprague Dawley rat (300 g) was opened, retracted and the heart was removed immediately and placed in an ice-cold normal Krebs-Henseleit (K-H) solution (NaCl, 118 mM; KCl, 4.7 mM; CaCl2, 2.5 mM; MgSO4, 1.2 mM; KH2PO4, 1.2 mM; NaHCO3, 25 mM; glucose, 5.5 mM). A K-H buffer filled 20 Gauge needle was inserted into the apex of the heart penetrating into the bottom of the chamber. This was attached to a pressure transducer used to record and monitor heart function. Perfusion pressure (˜60 mmHg) was monitored using a second transducer. The heart was perfused at a constant flow rate of 10-12 mL/min with 37° C. Krebs-Henseleit buffer saturated with a mixture of 95% O2 and 5% CO2 gas. The heart was paced at 300 beats/min.
# Two peptide test articles, a high collagen binding peptide (SEQ ID NO: 144) and a low collagen binding peptide (SEQ ID NO: 173), are compared to GdDTPA. The appropriate test article was added to the K-H buffer solution to a total concentration of either 3 or 30 μM. Also added to the K-H buffer was a radiotracer analog of each peptide or GdDTPA. For the peptides, the radiotracer was an aliquot of the appropriate 1-125 labeled peptide derivative (see Example 5 for protocol). For GdDTPA, the tracer added was Tc-99m labeled DTPA. The amount of radioactivity added to the buffer solution was 1-5 μCi.
# The heart was perfused for a period of 10 minutes and the perfusion solution was recycled through the heart. The total volume of K-H buffer used was 50-60 mL. After 10 min, the heart was removed from the apparatus and any connective tissue was removed. The heart was opened, fluid in the chambers drained, and the interior blotted dry with filter paper. The heart was then weighed and the radioactivity in the heart measured with a Packard Cobra 5003 Gamma Scintillation counter. An aliquot of the K-H buffer was also weighed and counted. Studies were performed at least in duplicate.
# The dual peptide gadolinium tetramer (Compound ID 803) was compared to GdDTPA. Compound ID 803 and GdDTPA were added to the K-H buffer solution to a total concentration of 3 μM. Also added to the K-H buffer was a radiotracer analog of Compound ID 803 or GdDTPA. For Compound ID 803, the radiotracer was an aliquot of the In-111 labeled compound. For GdDTPA, the tracer added was Tc-99m labeled DTPA. The amount of radioactivity added to the buffer solution was 1-5 μCi.
# human collagen type I = target: T1, human collagen type I (Homo sapiens, UniProt P02452+P08123); test: Dried collagen assay (DCA), percent bound to dried human collagen; assay type: binding
# T1 construct: Acid soluble human collagen extracted from placenta; purchased Sigma C7774; host or cells: human placenta (tissue extract)
# Experimental: Peptides identified using the phage-display protocol were screened using dried collagen assays (DCA) as described in A.-D. below.
# Acid soluble human collagen extracted from placenta (Sigma, cat#C7774, lot#083K375) is dissolved in 15 mM HCl (3.5 mg/ml) by vortexing and gently shaking for 3-4 hours at 4° C. The acid soluble collagen is dissolved against PBS, pH 7.4 (three buffer exchanges are used). […] Percent gelation (fibril formation) of the collagen is determined by incubating 10 μM collagen (3.3 mg/ml) at 37° C. for 6 hours. A typical percent gelation is 60%.
# [2] = test system: perfused Langendorff rat heart; test: Washout kinetics from perfused Langendorff rat heart; conditions: perfusion with buffer for 10 minutes
# Experimental: as §1
# A Langendorff rat heart preparation was perfused with K-H buffer at a rate of 10-12 mL/min. A one mL solution containing SEQ ID NO: 144 (300 μM), radiolabeled (I-125) SEQ ID NO: 144 (1-6 μCi), GdDTPA (300 μM), and radiolabeled (Tc-99m) DTPA (5-8 μCi) was infused into the heart at a rate of 1 mL/min. After the infusion was finished, the heart was either removed or perfusion was allowed to continue for an additional 10 minutes and then the heart was removed. The perfusion buffer was not recirculated through the heart. After removal of any connective tissue, the heart was opened, fluid in the chambers drained, and the interior blotted dry with filter paper. The heart was then weighed and the radioactivity in the heart measured with a Packard Cobra 5003 Gamma Scintillation counter. […] An aliquot of the K-H buffer was also weighed and counted. Concentration estimates were decay corrected. Studies were performed at least in duplicate.
# A Langendorff rat heart preparation was perfused with K-H buffer at a rate of 10-12 mL/min. […] The heart was then weighed and the radioactivity in the heart measured with a Packard Cobra 5003 Gamma Scintillation counter. […] An aliquot of the K-H buffer was also weighed and counted. […]
# rat collagen type I = target: T2, rat collagen type I (Rattus norvegicus, UniProt P02454+P02466); test: Dried collagen assay (DCA), percent bound to dried rat collagen; assay type: binding
# T2 construct: Rat collagen (acid soluble, type I, rat tail); purchased Upstate USA, Inc 08-115; host or cells: rat tail (tissue extract)
# Experimental: For the final assay, a 1:10 volume of 10×PBS (100 mM NaH2PO4, 1.5 M NaCl pH 7.4) is added to the collagen solution (final 1×PBS) and incubated at 37° C. for 2 hours. The gelation is typically 90%.
# [3] = Table 14, TN-6 peptides, D-amino acid scanning
# [4] = Table 2, TN-8 peptides, 5 μM peptide, PBS pH 7.4
# [5] = Table 4, TN-10 peptides, 5 μM peptide, PBS pH 7.4
# [6] = Table 15, TN-10 peptides with -G- linker, D-amino acid scanning
# [7] = Table 13, TN-10 peptides with -G- linker, alanine scanning
# T1 sequence (P02452 162-1218 limits assumed): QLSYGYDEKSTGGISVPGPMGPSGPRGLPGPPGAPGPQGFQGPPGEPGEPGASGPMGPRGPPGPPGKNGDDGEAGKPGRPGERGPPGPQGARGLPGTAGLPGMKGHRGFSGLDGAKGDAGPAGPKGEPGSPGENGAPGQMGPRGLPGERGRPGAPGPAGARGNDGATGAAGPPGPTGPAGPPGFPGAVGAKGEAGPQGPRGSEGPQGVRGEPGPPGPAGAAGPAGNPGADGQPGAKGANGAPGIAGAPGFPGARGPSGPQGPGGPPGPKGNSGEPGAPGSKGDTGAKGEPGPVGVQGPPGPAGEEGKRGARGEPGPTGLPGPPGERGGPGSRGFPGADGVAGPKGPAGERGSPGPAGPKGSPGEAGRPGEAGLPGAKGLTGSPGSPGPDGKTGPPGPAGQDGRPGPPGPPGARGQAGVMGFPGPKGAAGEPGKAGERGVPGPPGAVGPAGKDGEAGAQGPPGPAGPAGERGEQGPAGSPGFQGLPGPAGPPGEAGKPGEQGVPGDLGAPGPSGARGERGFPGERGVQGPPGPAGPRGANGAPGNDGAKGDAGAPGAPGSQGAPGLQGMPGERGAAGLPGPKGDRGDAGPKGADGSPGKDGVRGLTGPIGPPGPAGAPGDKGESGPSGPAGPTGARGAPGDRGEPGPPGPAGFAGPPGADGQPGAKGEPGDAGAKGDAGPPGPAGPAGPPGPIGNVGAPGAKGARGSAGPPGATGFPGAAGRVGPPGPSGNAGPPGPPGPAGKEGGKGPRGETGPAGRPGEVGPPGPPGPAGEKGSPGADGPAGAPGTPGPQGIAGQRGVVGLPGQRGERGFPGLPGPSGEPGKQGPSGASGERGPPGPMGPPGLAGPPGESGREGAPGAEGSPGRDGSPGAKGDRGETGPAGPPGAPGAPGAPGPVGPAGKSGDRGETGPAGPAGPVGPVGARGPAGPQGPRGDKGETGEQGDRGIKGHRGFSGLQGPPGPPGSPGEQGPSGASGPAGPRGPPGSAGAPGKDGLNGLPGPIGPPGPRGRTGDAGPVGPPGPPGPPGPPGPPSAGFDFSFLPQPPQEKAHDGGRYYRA
# T1 sequence (P08123 80-1119 limits assumed): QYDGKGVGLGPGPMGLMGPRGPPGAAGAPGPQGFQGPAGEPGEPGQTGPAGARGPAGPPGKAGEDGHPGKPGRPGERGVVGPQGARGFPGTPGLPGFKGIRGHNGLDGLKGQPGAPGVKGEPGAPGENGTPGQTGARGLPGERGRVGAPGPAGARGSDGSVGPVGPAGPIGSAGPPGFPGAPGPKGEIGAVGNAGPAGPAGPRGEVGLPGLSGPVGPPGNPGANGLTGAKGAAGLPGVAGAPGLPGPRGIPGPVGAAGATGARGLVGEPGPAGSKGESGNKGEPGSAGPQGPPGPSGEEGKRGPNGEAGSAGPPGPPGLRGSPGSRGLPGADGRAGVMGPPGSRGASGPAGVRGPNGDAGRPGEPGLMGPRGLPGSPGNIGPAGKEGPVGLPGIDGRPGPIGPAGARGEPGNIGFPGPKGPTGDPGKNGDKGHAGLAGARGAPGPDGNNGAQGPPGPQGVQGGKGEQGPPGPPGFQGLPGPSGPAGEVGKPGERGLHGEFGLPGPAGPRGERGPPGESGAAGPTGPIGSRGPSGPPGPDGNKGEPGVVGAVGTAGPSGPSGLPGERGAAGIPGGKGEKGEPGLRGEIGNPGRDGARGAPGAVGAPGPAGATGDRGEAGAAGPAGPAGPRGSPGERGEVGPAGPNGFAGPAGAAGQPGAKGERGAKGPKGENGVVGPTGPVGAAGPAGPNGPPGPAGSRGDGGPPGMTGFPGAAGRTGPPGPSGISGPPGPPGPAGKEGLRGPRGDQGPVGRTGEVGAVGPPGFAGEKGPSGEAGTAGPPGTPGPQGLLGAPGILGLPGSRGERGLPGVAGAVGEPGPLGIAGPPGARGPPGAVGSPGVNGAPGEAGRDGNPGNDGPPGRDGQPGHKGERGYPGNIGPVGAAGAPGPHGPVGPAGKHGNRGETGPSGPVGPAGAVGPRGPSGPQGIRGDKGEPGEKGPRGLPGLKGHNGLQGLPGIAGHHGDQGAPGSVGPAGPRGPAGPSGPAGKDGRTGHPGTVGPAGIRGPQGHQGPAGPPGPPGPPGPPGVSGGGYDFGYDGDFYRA
# T2 sequence (P02454 152-1207 limits assumed): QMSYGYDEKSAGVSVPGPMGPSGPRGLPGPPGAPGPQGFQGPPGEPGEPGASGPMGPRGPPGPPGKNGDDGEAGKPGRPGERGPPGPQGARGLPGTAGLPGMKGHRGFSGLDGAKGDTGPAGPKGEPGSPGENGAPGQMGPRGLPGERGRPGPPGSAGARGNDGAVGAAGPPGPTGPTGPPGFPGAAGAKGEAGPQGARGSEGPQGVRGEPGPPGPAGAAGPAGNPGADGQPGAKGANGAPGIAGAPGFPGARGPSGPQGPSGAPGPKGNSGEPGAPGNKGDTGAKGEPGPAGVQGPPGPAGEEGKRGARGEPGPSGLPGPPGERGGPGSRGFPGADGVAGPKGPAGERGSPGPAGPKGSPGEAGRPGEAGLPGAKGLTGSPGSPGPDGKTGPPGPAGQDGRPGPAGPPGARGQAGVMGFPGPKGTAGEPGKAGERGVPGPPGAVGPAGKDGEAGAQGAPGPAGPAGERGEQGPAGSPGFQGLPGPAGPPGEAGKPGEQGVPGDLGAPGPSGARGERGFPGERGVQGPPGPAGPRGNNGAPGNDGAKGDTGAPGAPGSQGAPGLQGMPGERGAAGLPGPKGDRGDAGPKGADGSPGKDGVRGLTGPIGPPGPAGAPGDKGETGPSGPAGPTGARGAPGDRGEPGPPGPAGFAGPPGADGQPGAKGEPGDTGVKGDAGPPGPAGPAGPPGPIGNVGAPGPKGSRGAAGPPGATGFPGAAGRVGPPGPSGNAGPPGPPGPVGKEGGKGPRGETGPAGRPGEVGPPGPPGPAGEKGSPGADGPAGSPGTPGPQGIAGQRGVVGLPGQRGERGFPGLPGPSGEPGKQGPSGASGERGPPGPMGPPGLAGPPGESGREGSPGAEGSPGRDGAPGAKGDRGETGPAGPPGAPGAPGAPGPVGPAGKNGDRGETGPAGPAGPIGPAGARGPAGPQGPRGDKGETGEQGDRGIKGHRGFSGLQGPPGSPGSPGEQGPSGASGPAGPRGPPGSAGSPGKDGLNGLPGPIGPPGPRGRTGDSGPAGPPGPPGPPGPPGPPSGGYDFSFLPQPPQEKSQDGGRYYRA
# T2 sequence (P02466 86-1125 limits assumed): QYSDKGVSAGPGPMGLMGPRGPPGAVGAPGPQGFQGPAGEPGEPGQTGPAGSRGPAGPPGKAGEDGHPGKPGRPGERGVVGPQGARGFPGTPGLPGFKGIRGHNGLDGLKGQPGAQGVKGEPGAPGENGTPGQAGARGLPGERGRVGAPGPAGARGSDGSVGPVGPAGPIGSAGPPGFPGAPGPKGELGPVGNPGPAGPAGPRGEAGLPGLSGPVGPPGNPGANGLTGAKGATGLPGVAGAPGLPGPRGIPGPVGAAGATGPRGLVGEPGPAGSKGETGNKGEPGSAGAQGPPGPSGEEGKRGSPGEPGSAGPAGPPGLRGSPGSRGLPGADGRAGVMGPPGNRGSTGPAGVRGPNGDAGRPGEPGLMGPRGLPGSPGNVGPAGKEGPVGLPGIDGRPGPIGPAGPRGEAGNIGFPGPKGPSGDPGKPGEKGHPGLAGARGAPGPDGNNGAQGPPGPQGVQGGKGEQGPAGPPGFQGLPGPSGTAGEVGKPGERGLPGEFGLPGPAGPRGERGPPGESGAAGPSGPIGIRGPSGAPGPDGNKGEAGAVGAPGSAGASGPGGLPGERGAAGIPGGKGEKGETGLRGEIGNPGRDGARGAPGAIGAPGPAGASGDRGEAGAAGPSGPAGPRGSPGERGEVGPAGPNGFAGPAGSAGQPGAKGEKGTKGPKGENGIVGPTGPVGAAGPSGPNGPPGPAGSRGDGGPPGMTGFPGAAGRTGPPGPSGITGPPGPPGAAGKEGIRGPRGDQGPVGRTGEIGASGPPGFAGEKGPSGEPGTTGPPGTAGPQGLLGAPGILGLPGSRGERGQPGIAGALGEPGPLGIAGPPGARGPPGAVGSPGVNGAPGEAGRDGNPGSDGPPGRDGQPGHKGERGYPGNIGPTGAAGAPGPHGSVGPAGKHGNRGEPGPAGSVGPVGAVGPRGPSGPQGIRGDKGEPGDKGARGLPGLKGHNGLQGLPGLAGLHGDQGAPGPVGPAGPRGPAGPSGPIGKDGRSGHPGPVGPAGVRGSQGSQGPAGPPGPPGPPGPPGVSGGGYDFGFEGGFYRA
compound,measurement,setting,value
CC(C)C[C@H](NC(=O)[C@@H]1CSSC[C@H](NC(=O)[C@H](Cc2c[nH]cn2)NC(=O)[C@H](Cc2c[nH]c3ccccc23)NC(=O)[C@H](CCC(N)=O)NC(=O)CNC(=O)CC[C@H](NC(=O)[C@H](CNC(=O)[C@@H](CN(CCN(CC(=O)O)CC(=O)O)CC(=O)O)N(CC(=O)O)CC(=O)O)NC(=O)[C@@H](CN(CCN(CC(=O)O)CC(=O)O)CC(=O)O)N(CC(=O)O)CC(=O)O)C(=O)NCCCCCCNC(=O)[C@H](CCC(=O)NCC(=O)N[C@@H](CCC(N)=O)C(=O)N[C@@H](Cc2c[nH]c3ccccc23)C(=O)N[C@@H](Cc2c[nH]cn2)C(=O)N[C@H]2CSSC[C@@H](C(=O)N[C@@H](CC(C)C)C(=O)N[C@@H](Cc3ccc(O)cc3)C(=O)NCC(N)=O)NC(=O)[C@H](Cc3ccc(O)cc3)NC(=O)[C@H](Cc3c[nH]cn3)NC(=O)[C@H](Cc3c[nH]cn3)NC(=O)[C@@H]3CCCN3C(=O)[C@H](Cc3ccccc3)NC(=O)[C@H](CO)NC(=O)[C@H]([C@@H](C)O)NC(=O)[C@H]([C@@H](C)O)NC2=O)NC(=O)[C@H](CNC(=O)[C@@H](CN(CCN(CC(=O)O)CC(=O)O)CC(=O)O)N(CC(=O)O)CC(=O)O)NC(=O)[C@@H](CN(CCN(CC(=O)O)CC(=O)O)CC(=O)O)N(CC(=O)O)CC(=O)O)C(=O)N[C@@H]([C@@H](C)O)C(=O)N[C@@H]([C@@H](C)O)C(=O)N[C@@H](CO)C(=O)N[C@@H](Cc2ccccc2)C(=O)N2CCC[C@H]2C(=O)N[C@@H](Cc2c[nH]cn2)C(=O)N[C@@H](Cc2c[nH]cn2)C(=O)N[C@@H](Cc2ccc(O)cc2)C(=O)N1)C(=O)N[C@@H](Cc1ccc(O)cc1)C(=O)NCC(N)=O [Comp ID 803],Heart,"[1]; 10 min recirculating perfusion, 3 μM in K-H buffer, radiotracer counting",9.1 ± 1.8 nmol/g
same,Heart:Buffer,"[1]; 10 min recirculating perfusion, buffer 3.0 μM",3.02 ± 0.62
130 (WWACQKGRHDWEKCRWL; disulfide 4-14 (inferred); not fully specified (C-terminus)) [compound 130],Dried Human Collagen Binding,"human collagen type I; Table 11, TN-11 peptides",32%
112 (AKACSVHDEFGCLIS; disulfide 4-12 (inferred); not fully specified (C-terminus)) [compound 112],Dried Human Collagen Binding,"human collagen type I; Table 8, TN-9 peptides",9%
"Compound ID 803: dual peptide gadolinium tetramer; bb-DTPA tetramer diacid coupled to N-terminus of SEQ ID NO. 264 peptide ({bb‑DTPA gadolinium tetramer diacid}-GQWHCTTSFPHHYCLYG; disulfide 5-14 (inferred); not fully specified (C-terminus); printed as G-Q-W-H-C-T-T-S-F-P-H-H-Y-C-L-Y-G; reading uncertain; also: dual peptide tetramer: two peptide chains on one diacid, Gd chelated) [dual peptide gadolinium tetramer; 264 peptide]",heart uptake relative to GdDTPA,[1]; 10 minutes,about 7 times
same,amount remaining in heart at 10 minutes after infusion relative to 0 minutes post infusion,[2],54%
163 (YHACYQAGCWIW) [compound 163],% Collagen Binding Dried Rat,rat collagen type I; [3],53%
159 (YHACYQAGCWIW) [compound 159],% Collagen Binding Dried Human,human collagen type I; [3],7%
190 ({Glu‑DTPA‑Gd-AEEA}-GQWTCSGDEYTWHCNY[dE]-NH2; disulfide 5-14 (inferred); also: gadolinium complex of Glu-DTPA) [compound 190],% Binding Collagen I Rat,"rat collagen type I; Table 17, chelate conjugates",5%
3 (PWWCHEMPSMCFGF) [compound 3],Dried Human Collagen Binding,human collagen type I; [4],2%
65 (KWECVHTKGEWYCETK) [compound 65],Dried Human Collagen Binding,human collagen type I; [5],7%
171 (QWTCSGDEYTWHCNYE) [compound 171],% Collagen Binding Dried Rat,rat collagen type I; [6],6%
36 (SWSCGGDHNAWKCQYS) [compound 36],Dried Human Collagen Binding,human collagen type I; [5],7%
168 (QWTCSGDEYTWHCNYE) [compound 168],% Collagen Binding Dried Human,human collagen type I; [6],3%
same,% Collagen Binding Dried Rat,rat collagen type I; [6],2%
39 (GWQCSGDASVWNCDWI) [compound 39],Dried Human Collagen Binding,human collagen type I; [5],6%
113 (FSECVWVNAYQCEYF; disulfide 4-12 (inferred); not fully specified (C-terminus)) [compound 113],Dried Human Collagen Binding,"human collagen type I; Table 8, TN-9 peptides",3%
174 (QWTCSGDEYTWHCNYE) [compound 174],% Collagen Binding Dried Human,human collagen type I; [6],5%
166 (QWTCSGDEYTWHCNYE) [compound 166],% Collagen Binding Dried Human,human collagen type I; [6],2%
same,% Collagen Binding Dried Rat,rat collagen type I; [6],3%
142 (QWTCSADEYTWHCNYE; disulfide 4-13 (inferred); not fully specified (C-terminus)) [compound 142],% Collagen Binding Dried Rat,rat collagen type I; [7],6%
167 (QWTCSGDEYTWHCNYE) [compound 167],% Collagen Binding Dried Human,human collagen type I; [6],4%
173 (QWTCSGDEYTWHCNYE) [compound 173],% Collagen Binding Dried Human,human collagen type I; [6],5%
same,% Collagen Binding Dried Rat,rat collagen type I; [6],4%
176 (QWTCSGDEYTWHCNYE) [compound 176],% Collagen Binding Dried Human,human collagen type I; [6],2%
same,% Collagen Binding Dried Rat,rat collagen type I; [6],2%
169 (QWTCSGDEYTWHCNYE) [compound 169],% Collagen Binding Dried Rat,rat collagen type I; [6],4%
2 (WGWCEWAQNNCWNY) [compound 2],Dried Human Collagen Binding,human collagen type I; [4],14%
37 (LWNCHGTDANWKCVLN) [compound 37],Dried Human Collagen Binding,human collagen type I; [5],7%
147 (QWTCSGDEYTAHCNYE; disulfide 4-13 (inferred); not fully specified (C-terminus)) [compound 147],% Collagen Binding Dried Human,human collagen type I; [7],5%
165 (QWTCSGDEYTWHCNYE) [compound 165],% Collagen Binding Dried Human,human collagen type I; [6],2%
same,% Collagen Binding Dried Rat,rat collagen type I; [6],4%
137 (YHACYQAGCWAW; disulfide 4-9 (inferred); not fully specified (C-terminus)) [compound 137],% Collagen Binding Dried Rat,"rat collagen type I; Table 12, TN-6 peptides, alanine scanning",7%
38 (GWSCHGDAADWPCQWS) [compound 38],Dried Human Collagen Binding,human collagen type I; [5],6%
175 (QWTCSGDEYTWHCNYE) [compound 175],% Collagen Binding Dried Human,human collagen type I; [6],2%
same,% Collagen Binding Dried Rat,rat collagen type I; [6],2%
